Data set [1] deals with the molecule itself. Nature of the data set: SEC-SAXS. For orientation: Size exclusion chromatography separates by hydrodynamic size, large species first.
Data set [2] deals with the molecule itself. Nature of the data set: crystal structure.

B1: Δ1-24_PTX3 (PTX3 truncation mutant with residues 1-24 of the mature protein deleted) (domain or fragment, human)
chain: ELEDPTPCACGQEHSEWDKLFIMLENSQMRERMLLQATDDVLRGELQRLREELGRLAESLARPCAPGAPAEARLTSALDELLQATRDAGRRLARMEGAEAQRPEEAGRALAAVLEELRQTRADLHAVQGWAARSWLPAGCETAILFPMRSKKIFGSVHPVRPMRLESFSACIWVKATDVLNKTILFSYGTKRNPYEIQLYLSYQSIVFVVGGEENKLVAEAMVSLGRWTHLCGTWNSEEGLTSLWVNGELAATTVEMATGHIVPEGGILQIGQEKNGCCVGGGFDETLAFSGRLTGFNIWDSVLSNEEIRETGGAESCHIRGNIVGWGVTEIQPHGGAQYVS
modifications: N-linked glycan at N220
As to B1, the binding result in data set [1] is recorded as “binds”.

B2: C-terminal pentraxin domain of human PTX3 (domain or fragment)
chain: ELEGCETAILFPMRSKKIFGSVHPVRPMRLESFSACIWVKATDVLNKTILFSYGTKRNPYEIQLYLSYQSIVFVVGGEENKLVAEAMVSLGRWTHLCGTWNSEEGLTSLWVNGELAATTVEMATGHIVPEGGILQIGQEKNGCCVGGGFDETLAFSGRLTGFNIWDSVLSNEEIRETGGAESCHIRGNIVGWGVTEIQPHGGAQYVS
modifications: N-linked glycan at N220
Regarding B2, in data set [2], the binding result was “binds”.

The values are drawn from publication doi:10.1101/2024.08.14.607909 (bioRxiv, 2024).
